Source: paper PMC2599749 (Protein expression and purification, 2008)

What was measured:
non-reducing SDS-PAGE = molecular target: the molecule itself; assay: non-reducing SDS-PAGE
[1] = molecular target: the molecule itself; assay: HPLC/ESI mass spectrometry

B1: bZIP domain of Activating Transcription Factor 5 (ATF5), untagged (domain or fragment, UniProt Q9Y2D1 208-271, looked up)
chain: GDRKQKKRDQNKSAALRYRQRKRAEGEALEGECQGLEARNRELKERAESVEREIQYVKDLLIEV
- monomer:dimer ratio (densitometry of the SDS-PAGE gel) (non-reducing SDS-PAGE): 1.7 dimer per 1.0 monomer
- stoichiometry N [1]: 2
